Measurements as given in patent EP0592600B1, “PROTEINS S POLYPEPTIDES AND USES THEREOF” (THE SCRIPPS RESEARCH INSTITUTE, priority 1991, dated 1993).
Ends that are not written are not given here. Peptide text beside a SMILES is read from it.

T1: PS:C4BP complex (Homo sapiens, UniProt P04003+P20851)
T1 construct: Purified human C4BP was obtained from 5 liters (1) of human citrated plasma; from tissue; host or cells: human citrated plasma (C4BP); protein S per Schwarz et al
T1 sequence (P04003 49-597): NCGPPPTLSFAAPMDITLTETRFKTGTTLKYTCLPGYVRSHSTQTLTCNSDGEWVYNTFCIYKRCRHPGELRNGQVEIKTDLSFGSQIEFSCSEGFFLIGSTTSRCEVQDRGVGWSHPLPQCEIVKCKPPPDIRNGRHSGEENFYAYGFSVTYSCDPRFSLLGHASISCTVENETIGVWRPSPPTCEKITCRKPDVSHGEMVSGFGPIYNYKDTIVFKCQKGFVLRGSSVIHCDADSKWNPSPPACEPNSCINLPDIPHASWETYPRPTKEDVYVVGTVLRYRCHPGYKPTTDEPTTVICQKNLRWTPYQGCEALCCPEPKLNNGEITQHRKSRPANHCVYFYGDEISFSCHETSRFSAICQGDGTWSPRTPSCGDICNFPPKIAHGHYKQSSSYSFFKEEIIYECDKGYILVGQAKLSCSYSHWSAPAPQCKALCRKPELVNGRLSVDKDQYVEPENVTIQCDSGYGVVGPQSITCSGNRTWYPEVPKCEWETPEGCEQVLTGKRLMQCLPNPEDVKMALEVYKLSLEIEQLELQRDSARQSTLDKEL
T1 sequence (P20851 18-252): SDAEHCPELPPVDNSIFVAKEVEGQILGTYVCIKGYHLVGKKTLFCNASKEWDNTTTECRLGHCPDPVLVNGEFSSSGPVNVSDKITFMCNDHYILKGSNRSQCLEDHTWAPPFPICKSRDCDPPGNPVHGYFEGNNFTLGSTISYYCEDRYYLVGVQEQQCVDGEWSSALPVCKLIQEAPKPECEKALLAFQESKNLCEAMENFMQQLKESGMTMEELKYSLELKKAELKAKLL

T2: C4b binding protein (human, UniProt P04003 49-597; P20851 18-252)
T2 construct: mature; The beta chain is added from general knowledge; Biotinylated (b-C4BP) in some assays; also called C4BP; purified human C4BP
T2 sequence (looked up) 1: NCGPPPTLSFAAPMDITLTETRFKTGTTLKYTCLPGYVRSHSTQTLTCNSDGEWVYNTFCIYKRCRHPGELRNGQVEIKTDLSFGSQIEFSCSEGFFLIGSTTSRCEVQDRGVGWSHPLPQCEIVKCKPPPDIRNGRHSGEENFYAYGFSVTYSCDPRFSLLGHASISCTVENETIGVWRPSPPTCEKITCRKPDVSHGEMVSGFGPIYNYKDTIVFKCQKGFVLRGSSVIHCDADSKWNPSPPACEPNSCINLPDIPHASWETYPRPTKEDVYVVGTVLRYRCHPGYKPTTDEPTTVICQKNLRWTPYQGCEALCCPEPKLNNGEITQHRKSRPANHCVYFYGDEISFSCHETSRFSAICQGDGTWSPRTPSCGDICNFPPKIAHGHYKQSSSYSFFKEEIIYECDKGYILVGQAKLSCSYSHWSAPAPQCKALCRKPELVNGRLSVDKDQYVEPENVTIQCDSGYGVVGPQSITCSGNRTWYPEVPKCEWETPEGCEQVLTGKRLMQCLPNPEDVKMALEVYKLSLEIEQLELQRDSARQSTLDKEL
T2 sequence (looked up) 2: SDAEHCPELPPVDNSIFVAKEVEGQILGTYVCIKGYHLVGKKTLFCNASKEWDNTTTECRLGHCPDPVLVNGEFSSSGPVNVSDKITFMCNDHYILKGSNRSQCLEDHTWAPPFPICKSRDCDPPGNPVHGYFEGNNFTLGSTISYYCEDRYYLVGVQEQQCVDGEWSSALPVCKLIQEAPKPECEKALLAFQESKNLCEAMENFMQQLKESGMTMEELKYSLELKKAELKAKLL

B1: PSP-428K* (peptide)
peptide: SGIKEIIQKKQNKC-NH2
notes: protein S 420-432,434 with a substitution

What was measured:
PS:C4BP complex [1] = target: T1, PS:C4BP complex; experiment: Peptide Inhibition Assay: binding of b-PS to C4BP in solid phase; conditions: peptide concentration of 800 µM; read-out: percent inhibition of PS:C4BP complex formation
Method: Each of the peptides produced as described in Example 1 and listed in Table 1 was analyzed for its ability to inhibit the binding of native protein S in liquid-phase to C4BP in solid-phase.
Microtiter wells of a 96 well plate were coated with 50 µl of 10 µg/ml purified C4BP in carbonate buffer (0.02 M Na2CO3, pH 9.0, 0.02% Na-Azide). After blocking with 10% BSA in TBS, 50 µl of different concentrations of peptides diluted in washing buffer (TBS, 0.2% BSA, 5mM CaCl, 0.02% Tween 20) were separately admixed to C4BP-coated wells. After 2 hours at room temperature, 50 µl of a solution of biotinylated protein S, were admixed to each well to form a second binding admixture having a final concentration of 2 µg/ml. The plate was agitated and the samples were incubated 1 hour at room temperature. The samples were discarded and the wells were washed 3 times with washing buffer. To each well, 50 µl of strepavidin-alkaline-phosphatase (1 µg/ml washing buffer) were admixed and allowed to incubate for 30 minutes at room temperature. The strepavidin-alkaline-phosphatase was then discarded and the wells were washed 6 times with washing buffer. The resulting optical densities of the reaction solutions were read as described before in Example 2C.
Results of the assay are reported as percent inhibition of C4BP binding. Percent of inhibition of C4BP binding is defined as: I = 100% - 100 x (deltaT /deltaC ) [formula] • where I is expressed as a percent; and • where 100% = delta/min of the amount of b-PS which specifically bound to C4BP-coated wells in the absence of any competing PS-peptide; and • where deltaT = the change in absorbance (405 nm) in the presence of competing PS-peptide; and • where deltaC = the change in absorbance (405 nm) in the absence of competing PS-peptide.

PS:C4BP complex [2] = target: T1, PS:C4BP complex; experiment: Peptide inhibition of binding of b-C4BP to PS-coated wells; conditions: b-C4BP 1 µg/ml, PS-coated wells, peptide 0 - 500 µM
Method: An alternative approach was used to test the ability of the peptides, PSP-loop and PSP-428K, in comparison with that seen with the PSP-12 peptide, in inhibiting the binding of C4BP to PS. For this assay, the microtiter wells were coated with purified PS diluted to a concentration of 10 µg/ml in carbonate-coating buffer as described above. The wells were maintained to allow the PS to bind to the well walls. After the maintenance period, the wells were blocked also as described above. The selected PSP peptides were separately admixed at various concentrations ranging from 0 - 500 µM with biotinylated-C4BP (b-C4BP) at a concentration of 1 µg/ml. The admixtures were maintained on a fluid phase plate for 2 hours at room temperature to form peptide-C4BP complexes.
Fifty µl of the complexed admixtures were separately admixed to the prepared C4BP-coated wells and maintained for 1 hour at room temperature. Thereafter, the plate was washed and processed for developing as described above.

C4b binding protein [3] = target: T2, C4b binding protein; experiment: Competition ELISA, peptide 800 µM on coated C4BP, then b-PS
C4b binding protein [4] = target: T2, C4b binding protein; experiment: Competition ELISA, peptide preincubated with b-C4BP, PS-coated wells

| Molecule | inhibition at 800 µM (PS:C4BP complex [1]) [%] | % inhibition of PS:C4BP complex formation (C4b binding protein [3]) [%] | also measured |
| --- | --- | --- | --- |
| CC[C@H](C)[C@H](NC(=O)CNC(=O)[C@H](CO)NC(=O)[C@H](C)NC(=O)CNC(=O)[C@@H](N)CCC(N)=O)C(=O)N[C@@H](CCCCN)C(=O)N[C@@H](CCC(=O)O)C(N)=O [PSP-417A] (H-QGASGIKE-NH2) | ~80 |  |  |
| CC[C@H](C)[C@H](NC(=O)CNC(=O)[C@H](CO)NC(=O)[C@H](C)NC(=O)CNC(=O)[C@H](CCC(N)=O)NC(=O)[C@H](CCCCN)NC(=O)[C@H](CCSC)NC(=O)[C@H](CC(C)C)NC(=O)[C@@H](N)CC(N)=O)C(=O)N[C@@H](CCCCN)C(=O)N[C@@H](CCC(=O)O)C(N)=O [PSP-417P] (H-NLMKQGASGIKE-NH2) | ~60 |  |  |
| CC[C@H](C)[C@H](NC(=O)CNC(=O)[C@H](CO)NC(=O)[C@H](C)NC(=O)CNC(=O)[C@H](CCC(N)=O)NC(=O)[C@H](CCCCN)NC(=O)[C@H](CCSC)NC(=O)[C@H](CC(C)C)NC(=O)[C@@H](N)CC(N)=O)C(N)=O [PSP-417] (H-NLMKQGASGI-NH2) | ~60 |  |  |
| CC[C@H](C)[C@H](NC(=O)[C@H](CCC(=O)O)NC(=O)[C@@H](N)CCCCN)C(=O)N[C@H](C(=O)N[C@@H](CCC(N)=O)C(=O)N[C@@H](CCC(=O)O)C(=O)N[C@@H](CCCCN)C(=O)N[C@@H](CCC(N)=O)C(=O)N[C@@H](CC(N)=O)C(=O)N[C@@H](CCCCN)C(=O)N[C@@H](Cc1c[nH]cn1)C(=O)N[C@@H](CO)C(N)=O)[C@@H](C)CC [PSP-428*, KEIIQEKQNKHS] (H-KEIIQEKQNKHS-NH2) | ~60 |  |  |
| CC[C@H](C)[C@H](NC(=O)CN)C(=O)N[C@@H](CCCCN)C(=O)N[C@@H](CCC(=O)O)C(=O)N[C@H](C(=O)N[C@H](C(=O)N[C@@H](CCC(N)=O)C(N)=O)[C@@H](C)CC)[C@@H](C)CC [PSP-424, GIKEIIQ] (H-GIKEIIQ-NH2) | 40 |  |  |
| NCCCC[C@H](NC(=O)[C@H](CC(N)=O)NC(=O)[C@H](CCC(N)=O)NC(=O)[C@H](CCCCN)NC(=O)[C@H](CCC(=O)O)NC(=O)[C@@H](N)CCC(N)=O)C(=O)N[C@@H](Cc1c[nH]cn1)C(=O)N[C@@H](CO)C(N)=O [PSP-430*] (H-QEKQNKHS-NH2) | ~80 |  |  |
| CC[C@H](C)[C@H](NC(=O)CNC(=O)[C@@H](N)CO)C(=O)N[C@@H](CCCCN)C(=O)N[C@@H](CCC(=O)O)C(=O)N[C@H](C(=O)N[C@H](C(=O)N[C@@H](CCC(N)=O)C(=O)N[C@@H](CCCCN)C(=O)N[C@@H](CCCCN)C(=O)N[C@@H](CCC(N)=O)C(=O)N[C@@H](CC(N)=O)C(=O)N[C@@H](CCCCN)C(=O)N[C@@H](CS)C(N)=O)[C@@H](C)CC)[C@@H](C)CC [PSP-428K, SGIKEIIQKKQNKC] (H-SGIKEIIQKKQNKC-NH2) |  |  | IC90 (PS:C4BP complex [2]; read-out: IC90): ~250 µM; IC50 (PS:C4BP complex [2]; read-out: half-maximal inhibitory concentration (IC50)): ~50 µM |
| NLMKQGASGIKE-NH2 [PSP-417P] |  | 60 |  |
| GIKEIIQ-NH2 [PSP-424] |  | 40 |  |
| QGASGIKE-NH2 [PSP-417A] |  | 80 |  |
| SGIKEIIQEKQNKHC-NH2 (also: biotinylated form b-PSP-12 also used, also called b-PSP-12 (biotinylated)) [PSP-12] |  |  | IC50 (C4b binding protein [4]): ~50 µM; IC90 (C4b binding protein [4]): ~250 µM |
| NLMKQGASGI-NH2 [PSP-417] |  | 60 |  |
| KEIIQEKQNKHS-NH2 [PSP-428*] |  | 60 |  |
| B1 |  |  | IC90 (C4b binding protein [4]): ~250 µM |
| QEKQNKHS-NH2 [PSP-430*] |  | 80 |  |
